{
  "source": "paper PMC7249735",
  "binders": {"B1": {"name": "A-aptamer-ELASA (modified B11) (ssDNA)", "DNA": "TTCTTTTATTAGTTGATTTTTTTGATTTTGGCAGCTACTGCTTTGGGGGTGCTGAGGCGAAGGACGCAGATGAAGTCTC", "modifications": "3' biotin"}},
  "target": "Maltose binding protein (MBP) (UniProt P0AEX9 27-396)",
  "test": "ELASA; 500 nM aptamer; PBS (137 mM NaCl, 2.7 mM KCl, 10 mM Na2HPO4, 1.8 mM KH2PO4, pH 7.4); ELASA 30 min at 4 C after 3% BSA block; sandwich capture in PBS, temperature not stated",
  "data": [
    {"binder": "B1", "values": [
      {"measurement": "binding result", "result": "no binding"}
    ]}
  ]
}
